Test results as given in a protein production outcome set (Wang et al. 2014).

assay: label from the status in PepcDB records
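Note: failed if final PepcDB status was selected cloned or expressed and not failed if soluble or beyond.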

Sequence	protein production
MTQKRKLDAASPGDPHDFAADGIERQTLRMVEQALRADRLMLAWQPVVVASEAARTVFHEGLIRVLDETGRIIPARDFMSAVETQDLGRLIDCASLEKGLATLARHPGLRLSINMSARSIGHGRWMQILQGALRADPNLGPRLILEITESSAMEVPELVLPFMDALQRAGISFALDDFGAGFTAFRYLKDFFFDIIKIDGQFIRNIHRDPDNQVLTQAMLSVGRHFDMLTVAETVETAEEAEWLRAAGVDCLQGYLFGRPCTQPAWQATGTRLIA	failed
MTQPSGLKNLLRAAAGALPVVPRTDQLPNRTVTVEELPIDPANVAAYAAVTGLRYGNQVPLTYPFALTFPSVMSLVTGFDFPFAAMGAIHTENHITQYRPIAVTDAVGVRVRAENLREHRRGLLVDLVTNVSVGNDVAWHQVTTFLHQQRTSLSGEPKPPPQKKPKLPPPAAVLRITPAKIRRYAAVGGDHNPIHTNPIAAKLFGFPTVIAHGMFTAAAVLANIEARFPDAVRYSVRFAKPVLLPATAGLYVAEGDGGWDLTLRNMAKGYPHLTATVRGL	failed
MTQQHPHLLEPELGEFLTALKNTPSRLTARTAAWLCIWTASRPGMVRLAEWKEFDLDKATWTTPAAKMKMRRDFVCPLPHQAIAALKELHCLTGRSRWLFPGVGAKNPTISENTINKVFATIGYKGRLVGHGTRHTASTLLREHGWPKEHVEAQLAHKEEGLEHHHHHH	failed
MTQQLFTLFAVFISLFLFGMAVMRAGLLTMNAEKARVGILRFVDNPLKGFFVGLLLTILLQSSSAVMIVTIGFVAAGYVTFRQSIGIILGTNVGTCFTVELIALDLHSLIVPLLLIGLIGLAIPHLITYCLGCVSFGLACIFISMNGLENLASPLAAIPAIQAFIELTNDWLIVGAGVGTLLTALIQSSTATTAIAMGFLNEEIIGIHGGIAIMLGANIGTCFTALLASIGSGRTSRLVAFAHLWLNVIGVLLFIPLIPHLSHFVMTLTTIPAIQLAHASTIFNVICSLAILPFVKPFASFIETLHGPSQ	failed
MTQQPRSTARTPASAEDPAAAAAHPPLAAPRPPAEHRVWPRTFHDRLTAPLPGLKAFARFAREGAVRPGPAGLADVPRLPCAPGPLPRVDARTVAVTWAGHASWVVRIGGLTVLTDPVWSRRILGTPPRVTPVGVPWSALPRVDAVVISHNHYDHLDAPTLRRLPRDTPVLVPAGLGRWFHRRRFTHVTELDWWEATELNGVRFDFVPAHHWSKRSLTDTCRTLWGGWVLTDPDGRRVYFAGDTGYGHWFTRIGRRYPGIDLALLPIGAYDPRWWLSDVHCDPEEAVRAAQDVGARRMAPMHWGTFVLSAEPVLEPLARVRAAWQQAGLPRERLWDLPIGASRVLE	failed
MTQQTFLVEIGTEELPPKALRSLAESFAANFTAELNNANLPYGEVIWYAAPRRLALKVTNLSATQADREVEKRGPAIAQAFDAEGKPSKAAEGWARGCGITVDQAERLVTDKGEWLLYRAHVKGQSAQLLLAGMVNTALSKLPIPKLMRWGDKDTQFVRPVHTVTMLLGSEVIPGTVLGIDSDRIIRGHRFMGEPEFTLDNADQYPQVLQERGKVIADYELRKAIIKRDAELAAQKIGGVADLSESLLEEVASLVEWPVVLTAKFEEKFLAVPAEALVYTMKGDQKYFPVYDTAGNLLPNFIFVANIESKDPQQIISGNEKVVRPRLADAEFFFKTDRKKRLEDNLPRLETVLFQQQLGTLRDKTDRIQALAGWVAAQIGADVNHATRAGLLSKCDLMTNMVFEFTDTQGVMGMHYARHDGEAEDVAVALNEQYQPRFAGDDLPSNPVACALAIADKMDTLAGIFGIGQHPKGDKDPFALRRAALGVLRIIVEKNLPLDLQTLTEEAVRLYGSKLTNTKVVDEVIEFMLGRFRAWYQDEGHSVDTIQAVLARRPTRPADFDARVKAVTYFRTLDAAAALAAANKRVSNILAKSTDKLNDHVRASVLKEPAELKLATHLVVLRDKLEPVFAAGQYQEALVELAALRETVDEFFESVMVMDEDDAVRVNRLTLLSKLRELFLQVADISLLQ	not failed
MTQRAGIHPSARRPSAFDPPIGCARPAMTDTLSLRPIVGRRRLWELDPHFHCSIVGTCLTMSDLRKLATKTRLSVPADAPDYRLHGVFVRAAGAAGPAEKGIAKLMDKDLERRHTRALAQFRKAADNDALEALWDGAREAGDIPGPYWALMCHPLASRTLLERAFGEVHMLSHLMGAANRADVRRLAEMERETEAVEDRLAEAEARRLREIEIKQGEIGQLRAAIEAERARTRALVRRLEEAGEGGCRDLRIQTLEATMEGLRERLNREAWRADRLQGKLAEAERLLTEVRADRDDLRRRLAEQAEDLRTLEDLALDDDGEAGDRPPLDLGGRTILYVGGRPRTVPSLRKLVEDSNGRFAHHDAGREDGRAHLGEVLSGADIVICPVDCISHDACLKAKRACLKRGTPFVPLSSAGLGAFARCLRETAPLFAPANDGAALAAELEHHHHHH	failed
MTQRKVYAPVPVMVAGIAIIATRFLGILLLVWELGLSDLSGWIGSNAEAWDSTLVLLLSLIIVGVEIRCGFAVLAGVNWGRWGYIACQGVVVCYLLLASLSEFMPAIFHISGENHAAVLHQLLMQKIPDLLVIVLLFLPRRSKRFFLRQK	failed
MTQRPRQDERAKDVWFEYVLTAGRFSAWPIRWQGWLATALLIVGPITGMMAIAKLAPGVPPFVLVLGAMTVCFGTVFPLAYFKGRPAKSRG	failed
MTQTDRPCLAALVILILLQLIMLFSLFAGVPPHPPIATPLFGIGPFIGASVSAAIAAIVLGESRAARVLALLAVLGALVSFGPQKYLDPQFPLIWPAVIAAQLAAITVLVRLLPALSRQDA	failed
MTQTVDIENTDNVLSRRDSNAETQQMLRQRFETQPDLMPAQLASELGIAELEVVTALPQAQRVFLPLAHMDELLQSLPEWGSLTTIVMLSGSVFEFKGDFPQGKFAHGYYNLYSKGDGLHGHLKLDGMRAIALISRPFRGSESHSINFFGPQGEVVFKVYLGRDKQRVLFPDQVRRFKALAATFAD	failed
MTRFNRFRRTLMQWTGSLPLLGALPLSKLAQAQGAEQPAASGTPPAGGTRAPRFAYVGTYTFDAPGGTAGGPPARGIYVLAPRGDAWSQAQVVESANPSFLAVHPNQRCLYAINEIDVYEGRATGTAEAYAIDPRDGRLTLLNRQPLSLSGTIPAHVAVSPDGQHLAVALYGGGAYNVLPIGADGRLGSVSGLFKDTGSGPDTARQEAPHAHMVLFDPTGRHILGTDLGTDRINVFALEDGKLTPRDRAQLKPGGGPRHLALHPSGKLLYVISELDSTVACHGYDPATGRVLDERQRIATTPADYTGQKSGAALVMHPSGRFLYASNRRLKSEHPLADSIAAFSIDPASGRLAALQYWSEGLRFPRALTMADDGRHLYALSQKGDTILRLRIDDATGRLDQPAVVSNVPTPVCLVFAG	failed
MTRIASHRGGTLEFGDSTPHGFTATAAMALEEVEFDLHPTADGAIVVHHDPTLDATTDMTGAIVDMTLAKVKTATIRYGAGSHPMTLEELCALYVDSHVNFRCEIKPGVDGLPYEGFVALVIAGLERHSMLERTTFSSFLLASMDELWKATTRPRLWLVSPSVLQQLGPGAVIETAIAHSIHEIGVHIDTADAGLMAQVQAAGLDFGCWAAHTPSQITKALDLGVKVFTTDRPTLAIALRTEHRMEASV	not failed
MTRIIPFALAVAALATAGAAQASTMVIGGGAAKECSDSALKGRSDKRSVLACTSALELENLNFRDRARTYVNRGVLQMRQKDFGAARSDFDAAGAIDPNLGEVFVNRGAAYVGEERYREGVEQIDKGLALGVKEPEKAWFNRGLANEGLGDLKAAFRDYSRAAELNPDWPAPKLELTRFSVKRP	failed
MTRNDSGDLISRNDSTNHMNTTQPQKMLPEATFSDRMLEIGIKYKKQLTALVVVICLAAGGTLFWMQKTKVDEVQASLALAKITPWIEMGDVNKAVNGEGSIKGLNSIIKTWGGTPSGKTARLYMAYILLNSGKPDDALSIYKGFSSDNKDLQASALAGAAACHVQKKAFAEAAPEYEKASETAENETLKSMYLTKAAESYSAAGQADKAAKLYDQVIKTWPATSSAGMAQRALLRLAGAGVQIPQI	failed
MTRPERAPLSASARIEVPFHDVDAMAVCWHGHYLKYFEIGRAALLRAFDYDYPEMRASGYLWPVVEAHLKYIRPATYGQRIEVRATLIEYENRLKIGYEIADCASGQRLTKGHTIQVAVCAATSELQFVSPAVVFEKVERAWADLEHHHHHH	failed
MTRPQAAAEDARNAMVAGLLASGISVNGLQPSHNPQVAAQMFTTATRLDPKMCDAWLARLLAGDQSIEVLAGAWAAVRTFGWETRRLGVTDLQFRPEVSDGLFLRLAITSVDSLACAYAAVLAEAKRYQEAAELLDATDPRHPFDAELVSYVRGVLYFRTKRWPDVLAQFPEATQWRHPELKAAGAAMATTALASLGVFEEAFRRAQEAIEGDRVPGAANIALYTQGMCLRHVGREEEAVELLRRVYSRDAKFTPAREALDNPNFRLILTDPETIEARTDPWDPDSAPTRAQTEAARHAEMAAKYLAEGDAELNAMLGMEQAKKEIKLIKSTTKVNLARAKMGLPVPVTSRHTLLLGPPGTGKTSVARAFTKQLCGLTVLRKPLVVETSRTKLLGRYMADAEKNTEEMLEGALGGAVFFDEMHTLHEKGYSQGDPYGNAIINTLLLYMENHRDELVVFGAGYAKAMEKMLEVNQGLRRRFSTVIEFFSYTPQELIALTQLMGRENEDVITEEESQVLLPSYTKFYMEQSYSEDGDLIRGIDLLGNAGFVRNVVEKARDHRSFRLDDEDLDAVLASDLTEFSEDQLRRFKELTREDLAEGLRAAVAEKKTK	failed
MTRPTHPNALIWLLLSIAIIALDQATKAWVLTSLPEYIPVPVIHGFWNWYRSYNTGAAFSFLSDAGGWQMWLFIALALGISGLLTFWLSRTPRREWRSALPYALIIGGGIGNVIDRFLHGHVVDFIQWYVGSYYWPSFNLADSAIVAGAIGIGLLSLFDSKHSPKTP	failed
MTRQRIAIDMDEVLADTLGAVVKAVNERADLNIKMESLNGKKLKHMIPEHEGLVMDILKEPGFFRNLDVMPHAQEVVKQLNEHYDIYIATAAMDVPTSFHDKYEWLLEYFPFLDPQHFVFCGRKNIILADYLIDDNPKQLEIFEGKSIMFTASHNVYEHRFERVSGWRDVKNYFNSIEK	failed
MTRRALFGPKVAPLIQAASLTLALLLFLAACGPKGSYENVGPEELYEALAAGALVVDVRTPGEFAQGHVPGAINLPVEEVARWADRIPKDRPVYLYCRSGNRSRKAAEYLARKGYTNLYNVEGGVLAIARAGYPLVR	failed
MTRRGAQKASPSRAPGETALSTLYVTHPSAVEHVVPTGHPERPARMQAVERALEDERFAALVRCHAPRAEASVAELVHPASYVETIVAASPDEGFFQIDGDTLMSPGSLNTCLHAIGGSNHAVDAVMKGECANAFVAMRPPGHHAERDRAMGFCLFNHAAIAVRHAQKAFGATRVALVDFDVHHGNGSQDIFWADKTVMYASTHQMPLFPGSGATGERGDHDTIVNAPLKAFDGSELFREAFEARILPRLDAFAPDLIVISAGFDAHKLDPLANIQLDEADFGWATRRLMEVADRHAGGRVVSILEGGYSLDGLARSVAAHMDALMGR	failed
MTRRLVLMLALLSGSAGASGSFFTLLQTWQGLGHAPIAVSPDGRLLALTRPAPRTPAYAPYDTRIEVRDTAKMRRLYRVPAANGDGKTLLFSPDSRTLWSAHSGTLHYDAWTGKLADNREGSDGAGVSALAFAPGGQSYVLAGVNAVGQTRLVRVGVSPLRSFWPVTRPTAGDGMQPNWTSALAFSPDGRWVASGSVGGGVILRSSVTGRPLRVLADEPGQAPHRARLVDLLFLSPARLLSASADGQVRLWDAATGRALASLPCGERLGAVVQLPGGTRVVAATSRGLQLIETSGGRLRRLETVGGDYADVGVSAAGELWAITRGGTLSHWRLLSR	failed
